Experimental data taken from patent publication US7772001B2, “Directed differentiation of embryonic stem cells into an endoderm cell” (Yissum Research Development Company Of the Hebrew …, priority 2000, dated 2010).
Entries after “also recorded” stand apart in the source; their conditions may differ.

Experiments:
[1] = test system: human differentiated embryonic (DE) cells; assay: RT-PCR of cell specific genes in DE cells treated with growth factors; assay type: cell-based; settings: for overall induction or repression of cell specific expression (FIG. 3B): at least three experiments
Method: (§1) Cell Culture: Human embryonic stem cells were grown on a feeder layer of mouse embryonic fibroblasts (MEF) and then transferred to gelatin coated plates and cultured further to reduce the number of murine cells in the culture. Differentiation into embryoid bodies (EBs) was initiated by transfer to Petri dishes, where the embryoid bodies remained in suspension. After 5 days, the EBs become dissociated and cells are cultured as a monolayer forming differentiated embryonic (DE) cells. This protocol allows for initial differentiation of the human embryonic stem cells as aggregates and further differentiation as a monolayer wherein cells can be exposed to exogenous growth factors. The DE cells were cultured for 10 days in the presence of 8 different growth factors: NGF, bFGF, Activin-A, TGFβ1, HGF, EGF, BMP4 and retinoic acid (RA) (FIG. 1A).
To induce formation of EBs, ES cells were transferred using trypsin/EDTA (0.1%/l mM) to plastic Petri dishes to allow their aggregation and prevent adherence to the plate. Human EBs were grown in the same culture medium, except that it lacked leukemia inhibitory factor (LIF) and bFGF. The EBs were cultured for 5 days and then dissociated and plated on tissue culture plates coated with 50 μg/ml Fibronectin (Boehringer Mannheim). The cells were grown in the presence of the following human recombinant growth factors used singly or in groups: Basic Fibroblast Growth Factor (bFGF) (Swoboda et al, 1999)—10 ng/ml (Gibco BRL); Transforming Growth Factor Beta 1 (TGFβ1) (Swoboda et al, 1999)—2 ng/ml (R&D Systems); Activin-A (Slager et al, 1993)—20 ng/ml (R&D Systems); Bone Morphogenic Protein 4 (BMP-4) (Slager et al, 1993; Bain et al, 1996)—10 ng/ml (R&D Systems); Hepatocyte Growth Factor (HGF)/Scatter Factor (Doetsch et al, 1999)—20 ng/ml (R&D Systems); Epidermal Growth Factor (EGF) (Doetsch et al, 1999)—100 ng/ml (R&D Systems); βNerve Growth Factor (NGF) (Johansson et al, 1999)—100 ng/ml (R&D Systems); Retinoic acid (RA) (Deacon et al, 1998; Peschanski et al, 1995)—1 μM (Sigma). Under these conditions the differentiated embryonic (DE) cells were grown for another 10 days. All of the examined growth factors are absent from the KnockOut™ serum replacement in which the embryonic cells were cultured.
RT-PCR Analysis: Total RNA was extracted using Atlas™ Pure Total RNA Kit (Clontech). cDNA was synthesized from 1 μg total RNA, using Atlas™ RT-for-PCR Kit (Clontech). cDNA samples were subjected to PCR amplification with DNA primers selective for the human genes. For each gene, the DNA primers were derived from different exons to ensure that the PCR product represents the specific mRNA species and not genomic DNA. PCR was performed using the Clontech Advantaq+™ RT-PCR kit and using a two-step cycle at 68° C.
Primers were synthesized for the following genes: neurofilament heavy chain (NF-H), phosphoprotein enriched in astrocytes (PEA-15), Keratin, Dopamine β Hydroxylase (DβH), Follicular Stimulating Hormone (FSH), Enolase, Myosin light polypeptide2 (myosin), Cartilage Matrix Protein (CMP), Renin, Kallikrein, Wilms Tumor 1 (WTI), β-Globin (β-Glob), δ-Globin (δ-Glob), Cardiac Actin (cACT), Albumin, α1 anti-trypsin (α1 AT), Lipase, Amylase, PDX-1, Insulin, Glucagon, Surfactant, Parathyroid Hormone (PTH), α-feto protein (αFP), Retinoic Acid Receptor type alpha (RAR), Hepatocyte Growth Factor Receptor (c-Met), Nerve Growth Factor Receptor (NGFR), Fibroblast Growth Factor Receptor type I (FGFRI), Transforming Growth Factor Receptor type II (TGFRII), Epidermal Growth Factor Receptor type (EGFR), Activin Receptor type IIB (ACTRIIB), Bone Morphogenic Protein 4 Receptor type II (BMP4RII), Octamer Binding Protein 4 (Oct 4), Glyceraldehyde 3-phosphate dehydrogenase (G3PD), β-Actin. Also incorporated by reference, see http://www.ls.huji.ac.il/˜nissimb/factors_es/primers.html-ente.
The differentiation induced by growth factors was further examined by determining the expression of a panel of 24 cell specific genes using RT-PCR. […]

[2] = test system: human differentiated embryonic (DE) cells; assay: Morphology of DE cells cultured with growth factors; assay type: cell-based; settings: several days on plastic, continuous exposure to growth factor (FIG. 1B)
Method: as §1
To induce formation of EBs, ES cells were transferred using trypsin/EDTA (0.1%/l mM) to plastic Petri dishes to allow their aggregation and prevent adherence to the plate. Human EBs were grown in the same culture medium, except that it lacked leukemia inhibitory factor (LIF) and bFGF. The EBs were cultured for 5 days and then dissociated and plated on tissue culture plates coated with 50 μg/ml Fibronectin (Boehringer Mannheim). […]

[3] = vs control without growth factor (FIG. 4)

Molecule	overall induction or repression of cell specific expression (FIG. 3B) [1]	blood formation [1, 3]	differentiation into Mullerian duct cells [1, 3]	differentiation into chondrocytes [1, 3]	differentiation into ectodermal cells [1, 3]	differentiation into endodermal cells [1, 3]	differentiation into kidney cells [1, 3]	differentiation into mesodermal cells [1, 3]	cell morphology found in treated culture [2]	differentiation into skin cells [1, 3]
Activin-A: human recombinant Activin-A, 20 ng/ml (protein, UniProt P08476 311-426, looked up) Inhibin beta A chain: GLECDGKVNICCKKQFFVSFKDIGWNDWIIAPSGYHANYCEGECPSHIAGTSGSSLSFHSTVINHYRMRGHSPFANLKSCCVPTKLRPMSMLYYDDGQNIIKKDIQNMIVEECGCS	mostly repress or fail to direct differentiation of as many cell types	inhibit	inhibit	inhibit	inhibit	inhibit	inhibit	allow differentiation into selected mesodermal cells	muscle like syncytiums	–
BMP-4: human recombinant Bone Morphogenic Protein 4, 10 ng/ml (protein, UniProt P12644 293-408, looked up) Bone morphogenetic protein 4: SPKHHSQRARKKNKNCRRHSLYVDFSDVGWNDWIVAPPGYQAFYCHGDCPFPLADHLNSTNHAIVQTLVNSVNSSIPKACCVPTELSAISMLYLDEYDKVVLKNYQEMVVEGCGCR	mostly repress or fail to direct differentiation of as many cell types	reduced	–	reduced	allow or induce	–	–	allow or induce; also recorded: inhibits differentiation of all other mesodermal cells examined	large round cells	apparently permitting skin cells to form
